# From patent publication US20050223428A1 (published 2005)
# T1: ERCAT-MBP (ERECTA kinase domain fused to maltose binding protein, kinase-active) (Arabidopsis, UniProt Q42371 611-976)
# T1 construct: Expressed in E. coli from pMAL-c2 and purified on amylose resin; dot-blotted on nitrocellulose
# T1 sequence: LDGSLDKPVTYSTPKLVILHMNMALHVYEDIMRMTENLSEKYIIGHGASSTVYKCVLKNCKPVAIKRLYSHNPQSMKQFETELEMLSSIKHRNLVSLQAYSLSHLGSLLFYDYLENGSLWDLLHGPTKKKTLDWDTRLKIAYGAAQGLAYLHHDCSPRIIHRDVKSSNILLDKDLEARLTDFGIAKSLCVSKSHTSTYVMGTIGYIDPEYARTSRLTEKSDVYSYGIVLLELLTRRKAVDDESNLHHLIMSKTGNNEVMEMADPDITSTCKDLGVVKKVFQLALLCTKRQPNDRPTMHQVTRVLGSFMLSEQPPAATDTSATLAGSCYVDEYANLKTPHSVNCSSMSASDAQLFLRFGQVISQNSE
# B1: GST-KID (kinase interaction domain of Kinase-Associated Protein Phosphatase, KAPP, fused to glutathione S-transferase) (other, UniProt P46014 180-313, looked up)
# chain: SWLFLEVIAGPAIGLQHAVNSTSSSKLPVKLGRVSPSDLALKDSEVSGKHAQITWNSTKFKWELVDMGSLNGTLVNSHSISHPDLGSRKWGNPVELASDDIITLGTTTKVYVRISSQNEFQIPFKIGVASDPMA
# modifications: labeled with 32P
# notes: Plasmid was a gift (John Walker); expressed in E. coli, purified on glutathione-Sepharose, 32P-labelled and used as the probe in the far-western dot blot; also called KAPP KID; radiolabeled KID protein; not shown: glutathione S-transferase (GST) fusion partner
# Target: T1, ERCAT-MBP (ERECTA kinase domain fused …)
# Assay: far-western dot blot with 32P-labelled GST-KID
# Excerpt: Far-Western Analysis of the ERECTA-KAPP Interaction: For protein-protein interaction (far-western) blot analysis, the kinase domains of ERECTA and RLK5 were expressed as MBP fusions. The ERECTA kinase domain (corresponding to amino acids 611 to 977) was amplified from cDNA using the primers ERK4 (5′ […] 3′, SEQ ID NO:34) and ER3rc (5′ […] 3′, SEQ ID NO:35). The amplified fragment was digested with EcoRI and BamHI and introduced into pSP73-delta-AatII to generate pKUT503. […] The first round of PCR was performed with the primer pairs ERK4 and ERK13/K676E (5′ […] 3′, SEQ ID NO:36) and ERKI5/K676E (5′ […] 3′, SEQ ID NO:37) and ERCodeC3 (5′ […] 3′, SEQ ID NO:38). In the next round, products from both reactions were mixed and amplified with ERK4 and ERCodeC3. The amplified fragment was digested with EcoRI and BamHI and introduced into the plasmid pSP73-delta-AatII to generate pKUT536. The EcoRI-SalI fragments of both pKUT503 and pKUT536 were cloned into pMAL-c2 (New England Biolabs). The plasmids RLK5CAT-MBP, RLK5CAT(K711E)MBP, and GST-KID 134 were generous gifts from John Walker (University of Missouri, Columbia). […] Protein concentrations were determined with Bio-Rad Protein Assay Solution. […]
binder,measurement,value
B1,binding result,no binding (tested: One milligram blotted)
